The supplement of paper PMC9170038

Test system: MS2 coat protein
Assay: apparent KD of MS2 coat protein; designed switch direction (-1 OFF switch, 1 ON switch): -1; higher = weaker reporter binding
Summary of the method: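 The reported apparent KD is a per-design median over clusters, from curve fits of normalised cluster fluorescence. Protein titrations used SNAP-549-labelled MS2 coat protein, doubled from 0.7 or 1.5 nM to 3 µM, in Tris-HCl pH 7.5 buffer with KCl, MgCl2, BSA, DTT, tRNA and Tween-20, with no input, 200 uM small-molecule ligand, or an oligonucleotide input. The RNA switches were transcribed on Illumina chips by stalled E. coli RNA polymerase.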

[1] = Eterna round: R95, input ligand: FMN 200 uM
[2] = Eterna round: R95, input ligand: microRNA oligo, concentration not stated
[3] = Eterna round: R95, input ligand: none
[4] = input ligand: microRNA oligo, concentration not stated

Sequence	apparent KD of MS2 coat protein [2] [nM]	apparent KD of MS2 coat protein (input ligand: FMN 200 uM) [nM]	apparent KD of MS2 coat protein (input ligand: none) [nM]	other results
GAUACCCAAGUCAGGAUAUCGGGAUACGAAAGUCACGAGAAGGGACAUGAGGAUCACCCAUGUAAAUAAAUAAA [Arege] (puzzle: Brourd's mod of Exclusion 4)	31.1			apparent KD of MS2 coat protein [1]: 62.7 nM; apparent KD of MS2 coat protein [3]: 33.2 nM
AGGAUGUUAGGAUAUGCUAGAGUACUACAGAGUACUACGGAGCAGAAGGAACAUGAGGAUCACCCAUGUCACCU [Exclusion 4 R4 S1] (Eterna round: R97, puzzle: Exclusion 4)		19.9	14	
CCAUGUCCAGAGGAUAUGUAGCGGAUAACCGCAACAGAAGGCUGGACAUGAGGAUCACCCAUGUGCGCCUUCCA [Vege] (Eterna round: R97, puzzle: Exclusion 6)		313	534	
AUGUUGUCAGGAUAUCGUUAAUUUAGUUGUUUGUAUUAGUUCGAGAAGGGACAUGAGGAUCACCCAUGUUUGAA [Ex4 #35] (Eterna round: R97, puzzle: Exclusion 4)		41.2	34.8	
GGUGCGUAUGUGAGGAUAUGCUGGUCCUUGGAUCAGCAGAAGGCACAUGAGGAUCACCCAUGUGGUGUCGUCCC [salish99_Bmod_Ex4_021] (puzzle: Brourd's mod of Exclusion 4)	241			
UCAUACGAUGAGGAUAUCUCCGUUAAAGUAUGUAGAGAAGGCGUUACAUGAGGAUCACCCAUGUUUGUGGGCAG [Ex-6 Malc#9] (Eterna round: R96, puzzle: Exclusion 6)				apparent KD of MS2 coat protein [4]: 250 nM
UGGACAUGAGGAUCACCCAUGUAAUACACACCUCAGCCACGAGAGGAUAUGCCCGGAGGACCGGCGCAGAAGGCUCCCAAGAGA [Eternabot solution 10] (Eterna round: R96, puzzle: Exclusion NG 3)		83.8	48.1	apparent KD of MS2 coat protein [4]: 29.5 nM
GGCCCACAUGAGGAUCACCCAUGUGAGGAUAUGUUAGUUUCGGCGAAAGCCGAAAUUAACAGAAGGCACAGGCC [JR_Exclusion1_Sub022] (puzzle: Exclusion 1)	10.8			
CCCUCAAGCGAGGAUAUAAAUGCGCAUUCGCGGUUAGAAGGCGCUACAUGAGGAUCACCCAUGUAAUUAAAUGG [jl-ex6-4.51 ViennaUCT mod] (Eterna round: R97, puzzle: Exclusion 6)		128	52.6	
UACAUGAGGAUCACCCAUGUUUUGUCGUGUAUGGUAUUUAUCUAGGAUAUCAAUUUAGUUAAUUAUGAGAAGGAGAAUAUUAAU [JMF's solution 75] (Eterna round: R96, puzzle: Exclusion NG 3)				apparent KD of MS2 coat protein [4]: 28.9 nM
AAAAAGGUAGGAUAUACGAAAAAAAAGGGUAAAAUAAAUAAACAUGAGGAUCACCCAUGUAGAAGGACCAAAAA [Mat - Exclusion 2 - Tesla mod - D38] (Eterna round: R96, puzzle: Exclusion 2)				apparent KD of MS2 coat protein [4]: 22.8 nM
CUUUUGUGAGGAUAUCAGGUGUGCUAGCGUACUGGUACAUCUGAGAAGGCACAUGAGGAUCACCCAUGUUCCUC [JL-ex4-3.17 Brourd mod] (puzzle: Exclusion 4)	39.1			
GGUCGAGAACAGCUCCGCGCCGCCCUCGACCGCUCAUUUACAUGAGGAUCACCCAUGUUUUUUGCUUGUCUUGUUUC [Ceerar] (puzzle: Sensor v3, turn-off variant 2)	98.4			apparent KD of MS2 coat protein [1]: 20.6 nM; apparent KD of MS2 coat protein [3]: 23.4 nM
ACAAGCUUUUUGUUCGUCUUAUAAUAAUAAAUAAAUAUAACAUGAGGAUCACCCAUGUUAAGAAGACGGCCUCAUGU [Sesor Array 21 - Jieux - Sensor v3, turn-off variant 2] (puzzle: Sensor v3, turn-off variant 2)	174			apparent KD of MS2 coat protein [1]: 82.2 nM; apparent KD of MS2 coat protein [3]: 71.8 nM
UACAAGCUUUUAAGAUCCCACAUGAGGAUCACCCAUGUGCUCGUCUUAUAACGUACUGUGACGAAAGUCACGGUACG [JL TOV1 3.24] (Eterna round: R97, puzzle: Sensor, turn-off variant 1)		15.8	24.3	
UUUUUUGUUGUGAGGAUAUCGUUGUGGAUGUGGAUCGAGAAGGCACAUGAGGAUCACCCAUGUUUGUUGUGGUU [JR_BMOE4_Sub085] (puzzle: Brourd's mod of Exclusion 4)	86.7			
UUGACGGCAGGAUAUACAUGAGGAUCACCCAUGUAAAUUUUUCGUUUAACUUGAAUGUGUAGAAGGGCCCAACC [Ex3 #78] (Eterna round: R97, puzzle: Exclusion 3)		16.6	17.8	
GGUCGACAUGAGGAUCACCCAUGUCAGGAUAUCUACAUUGAAGCUUCGGCUUCAAUGUAGAGAAGGGACAUAAU [E1/14-B1] (Eterna round: R97, puzzle: Exclusion 1)		35.3	30.1	

Sequence	apparent KD of MS2 coat protein [2] [nM]	apparent KD of MS2 coat protein (input ligand: FMN 200 uM) [nM]	apparent KD of MS2 coat protein (input ligand: none) [nM]	other results
CACUUACAUGAGGAUCACCCAUGUGAGGAUAUCGUGACCAGACGAGAAGUCUAUGUCACGAGAAGGUACAUGGG [Exclusion 1 (Mod 1.1 solution 97 by Eternabot)] (Eterna round: R97, puzzle: Exclusion 1)		93.3	574	
GUUUCACAUGAGGAUCACCCAUGUGAGGAUAUGGACUUUUUGGCAAUAGUCGUUGGGUUCAGAAGGCGCGUGAU [JR_Exc1_Sub006] (Eterna round: R97, puzzle: Exclusion 1)		45.2	49.4	
GCUUGUGGGCAAGGAUAUCCUACGUUGUUCUGGUUCGUGUCUGUCACAUGAGGAUCACCCAUGUGGGAGAAGGUGCAUUUGGGU [Design 59] (Eterna round: R96, puzzle: Exclusion NG 2)		17.9	18	apparent KD of MS2 coat protein [4]: 13.8 nM
AGUUGGCGAGGAUAUACAUGAGGAUCACCCAUGUGAAGAAGAAUAGUGAGGAAGAAAAGUAGAAGGCGCUGACA [Mat - Exclusion 3 - Mod of Salish D37] (puzzle: Exclusion 3)	36.6			
AACUGAUCUUGAGGAUAUCAAACACAUGAGGAUCACCCAUGUCACGAGACGGUGCUUUCCAGGAGUGAGAAGGUAAGCAGCGAG [Eternabot solution 44] (Eterna round: R96, puzzle: Exclusion NG 2)		31	37.1	apparent KD of MS2 coat protein [4]: 28 nM
UCACGGGAUUGAGGAUAUAUAUUUAUUAUUUUAAUAGAAGGCAAAGAGUUAGUUUUUUCACUAUACAUGAGGAUCACCCAUGUU [JR_ExcNG1_Sub086] (Eterna round: R96, puzzle: Exclusion NG 1)				apparent KD of MS2 coat protein [4]: 23.2 nM
CAUACUCAAGUGAGGAUAUAGUCUCGGAUACGGAACUAGAAGGCACAUGAGGAUCACCCAUGUAGAGAGUAAAG [EX-4 Malc #28] (puzzle: Brourd's mod of Exclusion 4)	22.8			apparent KD of MS2 coat protein [1]: 56.6 nM; apparent KD of MS2 coat protein [3]: 15.9 nM
GGCAAUAACGAGGAUAUCGUAUCGGAAACGAUACGAGAAGGUGUAACAUGAGGAUCACCCAUGUUCCUCAAGCC [Fiskers Ex 6 - 8] (puzzle: Exclusion 6)	33.9			
GAUACACAUGAGGAUCACCCAUGUGAGGAUAUGAUACUAUGUACUUCGGUACAUAGUAUCAGAAGGCACAUUGA [Ex1-3: 44] (puzzle: Exclusion 1)	61.2			
ACAUGAGGAUCACCCAUGUAAUCAUAAUGGCUGAUGUAGAGUCAGGAUAUGUGUGGCUUUCUAUCGCAGAAGGGACAAGACUGG [Deportation 34 - Jieux - Exclusion NG 3] (Eterna round: R96, puzzle: Exclusion NG 3)		26.3	30.7	apparent KD of MS2 coat protein [4]: 26.4 nM
ACAGCGUGAGGAUAUACAUGAGGAUCACCCAUGUGUGGCAGGUUAUCCUGUCAUGAGUGUAGAAGGCACGCUGU [Exclusion 3 - Oddities v.7 ( A small slide from ms2 to fmn)] (puzzle: Exclusion 3)	26.2			
CUGCUCCGUGUAGGAUAUCCGCGCAACCAAUGCGGAGAAGGACAUGAGGAUCACCCAUGUAUGUUAUUAUCACGUGAAGCGUCC [Design 26] (Eterna round: R96, puzzle: Exclusion NG 1)		24.8	24.8	apparent KD of MS2 coat protein [4]: 13.7 nM
UAUUAAACAAGCAGAUCCCACAUGAGGAUCACCCAUGUGCUCGUCUUAUAAGGUACUGUGACGAAAGUCACGGUACC [Sensor 3, v1 - 91 v11] (Eterna round: R97, puzzle: Sensor, turn-off variant 1)		56.7	62.1	
GCCGAAAGCGUAGGAUAUUGAAUAAAGCGGAAACGCAAGACAUGAGGAUCACCCAUGUGUCCGGACGAGAAGGGCGAAAGCGGC [AK ExNG2-V2-2] (Eterna round: R96, puzzle: Exclusion NG 2)		33.6	35.3	apparent KD of MS2 coat protein [4]: 24.1 nM
GGUCCGUCAGUGAGGAUAUUGAGGAGGAGGAGGGACAAGAAGGCACAUGAGGAUCACCCAUGUAGGGACGGACG [Alacar 1st] (Eterna round: R97, puzzle: Brourd's mod of Exclusion 4)		46.4	21.2	
ACGUAUAGAGGAUAUACAGAAUAUUACAUGAGGAUCACCCAUGUUCUUCAAUGUAUAUUUGUAGAAGGCUAAUGAA [EX-5 Malc#8] (puzzle: Exclusion 5)	62.3			
GCCGAAAAAGUGAGGAUAUACCUAUGGAUACAUAGGUAGAAGGCACAUGAGGAUCACCCAUGUGUCCUAACGGC [Eli bmx4 4.29] (Eterna round: R97, puzzle: Brourd's mod of Exclusion 4)		18	15.2	
